The assay deals with T1, TLR3 (Homo sapiens, UniProt O15455).
T1 construct: expressed in transfected cells
The assay is described as follows: poly(I:C)-induced NFκB / ISRE luciferase reporter assay in HEK293_TLR3 cells. The assay is classed as cell-based. The following applies: peptide 2, 5 or 10 μM, 25 μg/ml poly(I:C), 6 h. How it is done:
FIGS. 11A and B are bar charts showing the effect of A464 and scrambled A464 (ConA464) on poly(I:C)-induced TLR3 signalling in HEK293 cells. HEK293_TLR3 cells were seeded in 96 well plates (1.5×10^5 cells/ml) 24 hours before transfection with the plasmid DNA. Cells were transfected with 60 ng of either ISRE-Luciferase (A) or NFκB-Luciferase (B) and 20 ng of TK-Renilla reporter gene plasmids. The total volume of plasmid DNA transfected into the cells was made up to 230 ng by adding pcDNA.
Scrambled A464 (ConA464) (SEQ ID NO. 32) and A464 (SEQ ID NO. 20) peptides were added to the cells at a concentration of 2, 5 or 10 μM the next day and cells were stimulated with 25 μg/ml poly(I:C) 1 hour after treatment with the peptide. Cells were harvested and reporter gene assays performed 6 hr after stimulation with the agonist. No peptides were added to the control wells (black bars). Data is representative of at least three experiments each performed in triplicate. Data are expressed as mean fold induction±s.d. relative to control levels;
FIGS. 20A and B are bar charts showing the effect of shortened A464 peptides with deletions of N- and C-terminal amino acids on TLR4- and TLR3-induced NFκB activation in HEK293 cells. HEK293_TLR4 (A) and HEK293_TLR3 (B) cells were seeded in 96 well plates (1.5×10^5 cells/ml) 24 hours before transfection with the plasmid DNA. Cells were transfected with 60 ng NFκB-Luciferase and 20 ng of TK-Renilla reporter genes, as in FIG. 11. A464N-2 (SEQ ID NO. 41) and A464C-3 (SEQ ID NO. 42) peptides were added to the cells at a concentration of 1, 5 or 25 μM the next day and cells were stimulated with either 10 ng/ml LPS (A) or 25 μg/ml Poly(I:C) (B) 1 hour after treatment with peptides. Cells were harvested and assayed for NFκB activation by reporter gene assay 6 hours after stimulation with the agonists. No peptides were added to the control wells (black bars). Data is representative of three experiments each performed in triplicate and is expressed as mean fold induction±s.d. relative to control levels;
HEK293 cells were transfected using GeneJuice® a proprietary non-toxic transfection reagent. 200 μl/well cells at a density of 1×10^5 cells/ml were seeded the day before transfection. 0.8 μl of GeneJuice was mixed with 9.2 μl of serum-free DMEM (SFM) per transfection and incubated for 5 min at room temperature before adding the appropriate amount of the plasmid DNA. The GeneJuice/SFM/DNA mixture was then incubated at room temperature for 15 min before adding to the cells. 10 μl per well of the GeneJuice/SMF/DNA mixture was added to the cells in triplicate and the cells were allowed to recover for 18-20 hours before stimulation. […]

Entries after “also recorded” stand apart in the source; their conditions may differ.

As to KYSFKLILAEYRRRRRRRRR [Peptide A464], the “inhibition of TLR3-mediated ISRE induction” value is recorded as “slightly enhanced; also recorded: insensitive to inhibition” and the “inhibition of TLR3-mediated NFκB activation” value is given as “insensitive to inhibition; also recorded: slightly enhanced”.
